# Data reported in US20190351015.
protein,measurement,setting,value
Siah1 (protein) MSRQTATALPTGTSKCPPSQRVPALTGTTASNNDLASLFECPVCFDYVLPPILQCQSGHLVCSNCRPKLTCCPTCRGPLGSIRNLAMEKVANSVLFPCKYASSGCEITLPHTEKADHEELCEFRPYSCPCPGASCKWQGSLDAVMPHLMHQHKSITTLQGEDIVFLATDINLPGAVDWVMMQSCFGFHFMLVLEKQEKYDGHQQFFAIVQLIGTRKQAENFAYRLELNGHRRRLTWEATPRSIHEGIATAIMNSDCLVFDTSIAQLFAENGNLGINVTISMC,Degradation by Siah1,Nkx3.2 (99-327),+++
same,Degradation by Siah1,Nkx3.2 (99-330),+++
same,Degradation by Siah1,Nkx3.2 (99-320),+
same,Degradation by Siah1,Nkx3.2 (112-333),++
same,Degradation by Siah1,Nkx3.2 (159-314),++
same,Degradation by Siah1,Nkx3.2 (150-320),-
same,Degradation by Siah1,Nkx3.2 (1-333),+++
same,Degradation by Siah1,Nkx3.2 (123-333),-
same,Degradation by Siah1,Nkx3.2 (105-327),++
same,Degradation by Siah1,Nkx3.2 (165-310),++
same,Degradation by Siah1,Nkx3.2 (112-320),-
same,Degradation by Siah1,Nkx3.2 (1-307),-
same,Degradation by Siah1,Nkx3.2 (42-333),+++
same,Degradation by Siah1,Nkx3.2 (162-312),++
same,Degradation by Siah1,Nkx3.2 (130-320),-
same,Degradation by Siah1,Nkx3.2 (153-318),-
same,Degradation by Siah1,Nkx3.2 (123-320),-
same,Degradation by Siah1,Nkx3.2 (99-333),++
same,Degradation by Siah1,Nkx3.2 (110-324),+++
same,Degradation by Siah1,Nkx3.2 (156-316),++
same,Degradation by Siah1,Nkx3.2 (1-320),+
